Changes are numbered by the printed parent chain. Names may count otherwise.
T1: Par4 deletion mutant lacking the leucine zipper/death domain (Par4Δ, amino acids 1-276) (human, UniProt Q96IZ0 1-274)
T1 construct: Gal4 fusion in two-hybrid; also called Par4A; PAR4A
T1 sequence: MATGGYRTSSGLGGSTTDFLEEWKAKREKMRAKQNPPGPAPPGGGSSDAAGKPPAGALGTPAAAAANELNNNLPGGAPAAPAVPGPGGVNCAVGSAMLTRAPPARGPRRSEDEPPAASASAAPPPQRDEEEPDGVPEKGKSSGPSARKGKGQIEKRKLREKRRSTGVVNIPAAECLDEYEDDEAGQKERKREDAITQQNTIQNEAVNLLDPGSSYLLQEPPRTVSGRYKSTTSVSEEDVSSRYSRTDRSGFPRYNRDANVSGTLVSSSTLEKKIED

T2: human prostate apoptosis response-4 (PAR4), full length (human, UniProt Q96IZ0 1-340, limits assumed)
T2 construct: Gal4-BD or Gal4-AD fusion in two-hybrid; also called Par4 wild type
T2 chain: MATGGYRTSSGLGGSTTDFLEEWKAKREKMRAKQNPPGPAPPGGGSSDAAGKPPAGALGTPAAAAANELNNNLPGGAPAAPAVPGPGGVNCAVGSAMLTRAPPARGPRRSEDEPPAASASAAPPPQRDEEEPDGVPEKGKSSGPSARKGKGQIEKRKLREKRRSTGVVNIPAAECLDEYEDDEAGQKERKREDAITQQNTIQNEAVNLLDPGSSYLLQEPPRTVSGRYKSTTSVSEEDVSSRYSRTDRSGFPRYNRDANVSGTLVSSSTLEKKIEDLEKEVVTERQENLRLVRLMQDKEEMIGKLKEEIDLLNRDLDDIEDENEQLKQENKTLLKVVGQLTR

T3: Par4 leucine zipper/death domain (Par4DD, amino acids 250-342) (human, UniProt Q96IZ0 248-340)
T3 construct: Gal4 fusion in two-hybrid; also called myc-Par4DD
T3 chain: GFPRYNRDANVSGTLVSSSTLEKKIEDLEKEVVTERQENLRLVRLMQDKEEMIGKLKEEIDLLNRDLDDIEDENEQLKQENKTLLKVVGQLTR

T4: THAP1ΔQRCRR mutant (deletion of residues 168-172) (human, UniProt Q9NVV9 1-213)
T4 sequence: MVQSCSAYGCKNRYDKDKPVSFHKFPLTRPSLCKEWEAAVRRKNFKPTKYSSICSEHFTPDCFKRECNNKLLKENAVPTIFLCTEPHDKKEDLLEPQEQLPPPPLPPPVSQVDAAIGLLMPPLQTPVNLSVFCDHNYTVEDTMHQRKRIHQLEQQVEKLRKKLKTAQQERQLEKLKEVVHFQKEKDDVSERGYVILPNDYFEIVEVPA

T5: THAP1-N2 deletion mutant (amino acids 1-166) (human, UniProt Q9NVV9 1-166)
T5 construct: Gal4 fusion, in vitro translation product or GFP fusion according to assay
T5 sequence: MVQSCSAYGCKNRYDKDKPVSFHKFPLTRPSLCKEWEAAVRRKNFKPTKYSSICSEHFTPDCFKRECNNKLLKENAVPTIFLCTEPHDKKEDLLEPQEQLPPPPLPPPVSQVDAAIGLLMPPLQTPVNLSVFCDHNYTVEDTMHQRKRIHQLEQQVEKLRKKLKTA

T6: THAP1-N1 deletion mutant (amino acids 1-90) (human, UniProt Q9NVV9 1-90)
T6 construct: Gal4 fusion, in vitro translation product or GFP fusion according to assay; also called zinc finger domain of THAP1
T6 sequence: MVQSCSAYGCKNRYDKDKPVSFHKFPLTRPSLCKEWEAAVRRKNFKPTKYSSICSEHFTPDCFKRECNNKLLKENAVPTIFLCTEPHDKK

T7: THAP1-N3 deletion mutant (amino acids 1-192) (human, UniProt Q9NVV9 1-192)
T7 construct: Gal4 fusion, in vitro translation product or GFP fusion according to assay
T7 sequence: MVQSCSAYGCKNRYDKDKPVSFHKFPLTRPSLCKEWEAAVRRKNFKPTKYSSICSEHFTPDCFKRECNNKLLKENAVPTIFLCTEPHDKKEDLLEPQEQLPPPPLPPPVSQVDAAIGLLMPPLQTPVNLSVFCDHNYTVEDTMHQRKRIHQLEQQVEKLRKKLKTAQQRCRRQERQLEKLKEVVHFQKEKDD

T8: THAP1-C1 deletion mutant (amino acids 90-213) (human, UniProt Q9NVV9 90-213)
T8 construct: Gal4 fusion, in vitro translation product or GFP fusion according to assay; also called THAP1-CL; THAP1ΔTHAP
T8 sequence: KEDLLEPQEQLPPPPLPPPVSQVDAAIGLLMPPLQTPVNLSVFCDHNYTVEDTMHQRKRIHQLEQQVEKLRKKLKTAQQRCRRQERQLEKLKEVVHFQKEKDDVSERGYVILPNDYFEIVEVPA

B1: human THAP1 (THanatos-Associated-Protein-1), full length (other)
chain: MVQSCSAYGCKNRYDKDKPVSFHKFPLTRPSLCKEWEAAVRRKNFKPTKYSSICSEHFTPDCFKRECNNKLLKENAVPTIFLCTEPHDKKEDLLEPQEQLPPPPLPPPVSQVDAAIGLLMPPLQTPVNLSVFCDHNYTVEDTMHQRKRIHQLEQQVEKLRKKLKTAQQRCRRQERQLEKLKEVVHFQKEKDDVSERGYVILPNDYFEIVEVPA
notes: these tags are not written into the chain; also called hTHAP1; THAP1 wild type
B2: THAP1 RR/AA mutant (R171A, R172A) (other)
chain: B1 chain with R171A, R172A
notes: Gal4-BD fusion, in vitro translation product or GFP fusion according to assay; also called THAP RR/AA
B3: GST-Par4DD fusion protein (Par4 amino acids 250-342) (other)
chain: T3 chain
notes: Expressed in E. coli, immobilized on glutathione sepharose; not shown: glutathione S-transferase encoded by vector pGEX-2T (Amersham Pharmacia Biotech)
B4: human chemokine SLC/CCL21, mature form (amino acids 24-134) (ligand)
chain: SDGGAQDCCLKYSQRKIPAKVVRSYRKQEPSLGCSIPAILFLPRKRSQAELCADPKELWVQQLMQHLDKTPSPQKPAQGCRKDRGASKTGKKGKGSKGCKRTERSQTPKGP
notes: GenBank NP-002980; Used as Gal4 fusion in two-hybrid and as 35S-labelled in vitro translation product in pull-downs; also called SLC/6Ckine; SLC/CCL21 wild type

Assays:
[1] = biological target: the molecule itself; assay: yeast two-hybrid, THAP1 bait
[2] = biological target: T1, Par4 deletion mutant lacking the …; assay: yeast two-hybrid
[3] = biological target: T9, GST (glutathione S-transferase) control protein (UniProt P08515 1-218 = GST); assay: GST pull-down, negative control: in vitro translated 35S-labelled protein on GST alone immobilised on glutathione sepharose, SDS-PAGE, fluorography
T9 construct: Negative control in GST pull-down assays; also called GST beads; GST alone
Method: To confirm the interaction observed in yeast, we performed in vitro GST pull down assays. Par4DD, expressed as a GST-tagged fusion protein and immobilized on glutathione sepharose, was incubated with radiolabeled in vitro translated THAP1. To generate the GST-Par4DD expression vector, Par4DD (amino acids 250-342) was amplified by PCR with primers Par4.10 (5′-[…]-3′) (SEQ ID NO: 194) and Par4.5, and cloned in frame downstream of the Glutathion S-Transferase ORF, into the BamHI site of the pGEX-2T prokaryotic expression vector (Amersham Pharmacia Biotech, Saclay, France). GST-Par4DD (amino acids 250-342) fusion protein encoded by plasmid pGEX-2T-Par4DD and control GST protein encoded by plasmid pGEX-2T, were then expressed in E. coli DH5α and purified by affinity chromatography with glutathione sepharose according to supplier's instructions (Amersham Pharmacia Biotech). The yield of proteins used in GST pull-down assays was determined by SDS-Polyarylamide Gel Electrophoresis (PAGE) and Coomassie blue staining analysis. In vitro-translated THAP1 was generated with the TNT-coupled reticulocyte lysate system (Promega, Madison, Wis., USA) using pGBKT7-THAP1 vector as template. […]

[4] = biological target: B4; assay: yeast two-hybrid, SLC/CCL21 bait
[5] = biological target: B1; assay: yeast two-hybrid, THAP1 bait
[6] = biological target: T2, human prostate apoptosis response-4 …; assay: yeast two-hybrid, Par4 wt bait
Method: for mutant THAP1ΔQRCRR. The resulting PCR fragments were digested with EcoRI and BamHI, and cloned in frame downstream of the Gal4 Binding Domain (Gal4-BD) in pGBKT7 two-hybrid vector (Clontech) to generate pGBKT7-THAP1-RR/AA and -Δ(QRCRR), or downstream of the Enhanced Green Fluorescent Protein (EGFP)ORF in pEGFP.C2 vector (Clontech) to generate pEGFP.C2-THAP1-RR/AA and -Δ(QRCRR). THAP1RR/AA and THAP1ΔQRCRR THAP1 mutants were then tested in the three THAP1/Par4 interaction assays (two-hybrid assay, in vitro THAP1/Par4 interaction assay, in vivo THAP1/Par4 interaction assay) as described above for the THAP1-C1, -C2, -C3, -N1, -N2 or -N3 mutants.

[7] = biological target: B3; assay: GST pull-down
[8] = biological target: T3, Par4 leucine zipper/death domain …; assay: yeast two-hybrid and in vivo interaction assay
[9] = biological target: T4, THAP1ΔQRCRR mutant (deletion of …); assay: GST pull-down
[10] = biological target: T5, THAP1-N2 deletion mutant (amino acids …); assay: GST pull-down: in vitro translated 35S-labelled protein on GST-Par4DD immobilised on glutathione sepharose, SDS-PAGE, fluorography
Method: (§1) THAP1 mutants were also tested in the in vitro THAP1/Par4 interaction assay. In vitro-translated THAP1 mutants were generated with the TNT-coupled reticulocyte lysate system (Promega, Madison, Wis., USA) using pGBKT7-THAP1-C1, -C2, -C3, -N1, -N2 or -N3 vector as template. 25 μl of each ³⁵S-labelled THAP1 mutant was incubated with immobilized GST or GST-Par4 protein overnight at 4° C., in the following binding buffer: 10 mM NaPO4 pH 8.0, 140 mM NaCl, 3 mM MgCl2, 1 mM dithiothreitol (DTT), 0.05% NP40, and 0.2 mM phenylmethyl sulphonyl fluoride (PMSF), 1 mM Na Vanadate, 50 mM β Glycerophosphate, 25 μg/ml chimotrypsine, 5 μg/ml aprotinin, 10 μg/ml Leupeptin. Beads were then washed 5 times in 1 ml binding buffer. Bound proteins were eluted with 2× Laemmli SDS-PAGE sample buffer, fractionated by 10% SDS-PAGE and visualized by fluorography using Amplify (Amersham Pharmacia Biotech). As expected, THAP1-C1, -C2, -C3, -and -N3 interacted with GST/Par4DD (FIG. 4B).

[11] = biological target: T6, THAP1-N1 deletion mutant (amino acids …); assay: as above
Method: as §1

[12] = biological target: T4, THAP1ΔQRCRR mutant (deletion of …); assay: yeast two-hybrid, SLC/CCL21 bait
[13] = biological target: T9, GST (glutathione S-transferase) control …; assay: GST pull-down, 35S-labelled in vitro translated SLC/CCL21
Method: To confirm the interaction observed in yeast two-hybrid system, we performed in vitro GST pull down assays. THAP1, expressed as a GST-tagged fusion protein and immobilized on glutathione sepharose, was incubated with radiolabeled in vitro translated SLC/CCL21.

[14] = biological target: B1; assay: yeast two-hybrid, chemokine bait and THAP1 prey
[15] = biological target: T5, THAP1-N2 deletion mutant (amino acids …); assay: yeast two-hybrid
[16] = biological target: T7, THAP1-N3 deletion mutant (amino acids …); assay: yeast two-hybrid
[17] = biological target: T8, THAP1-C1 deletion mutant (amino acids …); assay: yeast two-hybrid

T9 sequence (P08515 whole entry): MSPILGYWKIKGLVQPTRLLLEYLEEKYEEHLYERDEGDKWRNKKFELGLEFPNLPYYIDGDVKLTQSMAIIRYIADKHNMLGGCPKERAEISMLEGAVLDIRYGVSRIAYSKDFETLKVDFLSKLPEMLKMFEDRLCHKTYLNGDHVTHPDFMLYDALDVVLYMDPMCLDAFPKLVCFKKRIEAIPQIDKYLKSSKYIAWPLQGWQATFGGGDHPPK

Binder: B1
- binding result [1]: binds
- binding result [2]: no binding
- binding result [3]: no binding

Binder: B2
- binding result [4]: binds
- binding result [5]: binds
- binding result [6]: no binding
- binding result [7]: no binding
- binding result [8]: no binding

Binder: B3
- binding result [9]: no binding
- binding result [10]: no binding
- binding result [11]: no binding

Binder: B4
- binding result [12]: no binding
- binding result [13]: no binding
- binding result [14]: binds
- binding result [15]: no binding
- binding result [16]: no binding
- binding result [17]: binds

Reference: US20060270596A1 (CENTRE NATIONAL DE LA RECHERCHE SCIENTIFIQUE CNRS, published 2006)
